Data published in patent publication US11572408B2, “Treatment of cancer with a semaphorin-4D antibody in combination with an epigenetic modulating agent” (Vaccinex, Inc., priority 2017, dated 2023).

B1: anti-SEMA4D/MAb 67: anti-SEMA4D monoclonal antibody, VH SEQ ID NO: 9 and VL SEQ ID NO: 10 (antibody, V domains shown)
VH: QVQLQQSGPELVKPGASVKISCKASGYSFSDYYMHWVKQSPENSLEWIGQINPTTGGASYNQKFKGKATLTVDKSSSTAYMQLKSLTSEESAVYYCTRYYYGRHFDVWGQGTTVTVSS
VL: DIVMTQSPASLAVSLGQRATISCKASQSVDYDGDSYMNWYQQKPGQPPKLLIYAASNLESGIPARFSGSGSGTDFTLNIHPVEEEDAATYYCQQSNEDPYTFGGGTKLEIK
modifications: Mab 67 VH; Mab 67 VL

How the values were obtained:
Type in all cases: in vivo, Balb/c mice
[1] = tested on: Colon26 cells; assay: Example 1: Colon26 subcutaneous tumor mouse model, ENT and anti-SEMA4D MAb; conditions: MAb 67 10 mg/kg ip weekly x5 from day 2, ENT 20 mg/kg 3x/week x2 weeks from tumor volume ~300 mm^3, FIG. 2A
Procedure: Colon26 cells (500,000 cells) were implanted subcutaneously into Balb/c mice. […] Kaplan-Meier survival analysis was performed to assess survival function, change in tumor volume was measured to determine tumor growth rates, and frequency of complete tumor regression was evaluated by determining the percentage of tumor-free mice. Percent complete regression (% CR) was also stratified by tumors that exceeded at least 100 mm^3 before regressing. Statistical significance was determined using Mantel Cox Log Rank test for survival, 2-way ANOVA for tumor volume, and Fisher's exact test for CR. Prism reports results as non-significant (ns) at P>0.05, significant (symbolized by “*”) at 0.01<P≤0.05, very significant (“**”) at 0.001<P≤0.01, extremely significant (“***”) at P≤0.001, and highest significance (“****”) at P≤0.0001.

[2] = tested on: Colon26 cells; assay: Example 2: Colon26 subcutaneous tumor mouse model, ENT and anti-SEMA4D MAb
Procedure: Colon26 cells (500,000 cells) were implanted subcutaneously into Balb/c mice. […] Statistical significance was determined using 2-way ANOVA, Mantel Cox Log Rank test, and Fisher's exact test, respectively. Prism reports results as non-significant (ns) at P>0.05, significant (symbolized by “*”) at 0.01<P≤0.05, very significant (“**”) at 0.001<P≤0.01, and extremely significant (“***”) at P≤0.001.

[3] = tested on: Colon26 cells; assay: Example 3: Colon26 subcutaneous tumor mouse model, AZA and anti-SEMA4D MAb; conditions: MAb 67 10 mg/kg ip weekly x4 from day 2, AZA 0.8 mg/kg 3x/week x4 doses from tumor volume ~200 mm^3, FIG. 5A
Procedure: Colon26 cells (500,000 cells) were implanted subcutaneously into Balb/c mice.
Kaplan-Meier survival analysis was performed to assess survival function, change in tumor volume was measured to determine tumor growth rates, and frequency of complete tumor regression was evaluated by determining the percentage of tumor-free mice.

Row | Molecule | maximal tumor growth delay (TGD) [1] | frequency of complete tumor regression ([2]; Fisher's exact test) | maximal tumor growth delay (TGD) ([2]; MAb 67 10 mg/kg weekly x5 from day 2, ENT 20 mg/kg 3x/week x2 weeks from tumor volume ~250 mm^3, FIG. 3A) | maximal tumor growth delay (TGD) [3]
1 | Nc1ccccc1NC(=O)c1ccc(CNC(=O)OCc2cccnc2)cc1 [ENT, pyridin-3-ylmethyl N-[[4-[(2-aminophenyl)carbamoyl]phenyl]methyl] carbamate, reference compound] | 214% | 25% | – | –
2 | B1 | 107% | – | 119% | 119%
